From the domain aggregation screens of Martell et al. (2025)

Assay: soluble fraction after stress (log2 fold change); higher = more stays soluble; pooled small domains, quantitative proteomics
Conditions: stress: 50 degC
Outline: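 Quantitative proteomics served as the high-throughput read-out for pooled custom libraries of small protein domains. Each was stressed at 50°C. Aggregation propensity is expressed as the base-two log fold change in soluble protein after stress. A higher value means a larger share of the protein remains in solution.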

| Sequence | soluble fraction (log2) |
| --- | --- |
| HMRVELVVVPELRQQLLPEARELANSAGLQLRVRGQSPADETRTIVVTQSPAAGTRVAARSIVLVE | -0.539 |
| HMHYELTPDAEKQLSALGLTAELVERILEEANDRRPIPGTNRTVYSLHGYSVEFSNTNHKIVSVRKG | -0.219 |
| HMQQFGANVRLIRKARQMSIKQLSELSGVSQTMISEVERGLKIPTIDVAGKIAAALGIDLTNLMG | -0.465 |
| HMPVNGEFIERIKVMVLENKAKGKKERLTKTRMHQLLQEEGYKGSYSAFTHQVRIIEEELGVNQKEAH | -0.0836 |
| HMTRTEYMAQLEKYLKKLPHKEFQEAITFFNEYFDEAGPEKETAIMEELGSPKEAASELITNILNRHI | -0.149 |
| HMSPPALAVQRDGSNVQISWPGAEEGWRLESSAEPSGAAWDLIAQNPTPVGGRWTVSLTEPTGRRFYRLVK | 0.0321 |
| HMIGKLTSSKLAAIHKMKTNELLAHFTEKGFLNINDAGKYILTQQGKDVGAEFKTSQYGGYFLWPENIE | -0.841 |
| HMQSISLEEAKSAALDDAQLGIDEVEFLKTERNTDGDTSYYDIQFLVNGTIYKYQINTETGAILHVDYEA | -0.052 |
| HMLGNIERALEMLQEVAATMDPVDIRLLLSMAQVESVRGNTEAAVKLIDEALVIDPGNERIEQIRLRVL | -0.558 |
| HMDADGEPIKLDQIGISHLSFTVADVKSLGEELVAKGVKLAAPMEAFTSPEGRISSIFVYDPDGILLQFDD | -0.104 |
| HMDPDARQDAEVWLLDFLSAGPRTAQEIFTAARVEGHTRVTVKRAKATAGIQSVKQDFDGPWVWVLPGSG | -0.491 |
| HMNPETLTNSSVIKMSKANLSDELITDMILNSPVKFDLSAGAIKTLESEGVTPAVLESMKNAASK | 0.154 |
| HMPLYKYYTSYQIEPGDTLTSIAQKYTINSDVSVQDYIDEVKKNNNLVSDKINSGSYLVVSYYSNEY | -2.35 |
| HMTPFVINVDRHGAVIINEKTVDIDEAVVLARQERSQGKSILLAGDKKAPYEAIIRVLDALKQAG | -0.185 |
| HMPDKIDSAAQGILDKLIRNDGFMAVTDKSPPEAIYKLFGVSKKVFKQAIGSLYKNRLITIEDAGLRIIPQ | -0.0609 |
| HMVAQQINDFRSERDASTGTLKRPLFDTLRDVISSRAQAYVSATGKPVTVEDLDRIYQAVEAEAKQAL | 0.0781 |
| HMVSRVTTPGVVGKTWQETKQILKQADLTVGSLTRDGKDVTPADGDLVTAQNPSAGQAIVRGSSVDLTFDK | 0.31 |
| HMRSMEKRLTAKVKRVQEGVQAKSQAGEQPFEVVKLMQRFPKLMQFGKHAEAETVLDKALELLGEE | 0.172 |
| HMPQFDRQAFGQRLRLLRDYREMTQQQVANFLNVDRSTYSYYENGKTEPSITVLMRMAELFSVTLDSLLNM | -2.83 |
| HMQDNPELVARIEKAAARGTSSMSDWERSFMGSLLDSAKKWGRLTAKQHEVFQRIEKKTDPAHQAAVS | 0.0476 |
| HMQGIPVTVTAERANLRSGPGTSFDKLGQVVQGDVLTLLEVQNDWYKVKTAEGKTAFVAAYLVNSP | 0.0205 |
| HMEVSEGEIREKVESVFSSNPRQAYNYKQISKKLNINDKSERQIVWDVLRKLAGSGKIQEVEHGRFRARAE | 0.122 |
| HMPEGTYLEKLAIENNNLQLIGLSREASQLVQLLQDAPQWRKVNLTGVLQADGAASGRDRFTMTAELQ | 0.0683 |
| HMFELVKISENIPIRDLAETLKTTPNEIIKELMVFGVLANINQTLNFDLASKVADKLGFEVELL | -0.246 |
| HMDIMTVGERVKKLAEKQGISLRELAKKAELSYNTVYSITRRGSERVAPDTISRLANALGVNVNELT | 0.0708 |
| HMLLTHEEQIVKRGWQAPVGPFAILDSRAEAMHGDLEMLRGDREAAEQHFRRAWQIIGPIVEQ | -0.0656 |

| Sequence | soluble fraction (log2) |
| --- | --- |
| HMLINFPNKLKRLRLANNLTQQELANILETTKQAVSSYESGKSTPSLNSLIKLSEHFNISLDSLVFD | 0.183 |
| HMKIAPRTAENQQLRKMILEIYTTSKKRVGPAKVRRMLLRDYGISISIGRVYRLMSTMNLPKMS | -0.258 |
| HMGKPVTMELLIPYSQGSLVHRISEAGEVAKTEYQNDGTYMQVTFTPSAKDHALMQEVASYRI | 0.184 |
| HMINRPVYVPLYTNLDVKDAAEIAEKLEENNIAYKLEDQGETILVNPEQKYKVRLMLAQEGLPKG | -0.0681 |
| HMNEIEIHINKLFGKISDSKRKQELMQEITQNLNEKVSDLVSQGQTREQAVKKAIEDFGDIDDLKDELDN | 0.275 |
| HMPGPAEMPGWITARAKKLGGQITPEAARALAAEMGSDTEQASREIEKLLTYVDYRRPVEEEDVALLTA | -0.0046 |
| HMREGRERRLSQLLSYLRTHHILTRSEYVKLTGLSPTAASSELKTFVTAGHIVRKGIASHSTYRLPH | -1.71 |
| HMISLNEDQKLAILNEWNQRPDDPPFIKELIELVFPDIPEEAKTGRSRYGIAIKKFLAEKSLQAKV | -0.305 |
| HMGGGRELGLDPETGKKISVRLGKFGPFVQLGESGEEDKPVFANLGKNQSIATLSLEEAIALLARPK | 0.246 |
| HMKNSIKLDNFVGMSYDEVISNKEYDFNFVSAFEKTSDYEAGTIIGQTPAAEERVMVGTTVTLTVAQP | 0.0342 |
| HMQDPRITRTRGLILQAFDALLVEKGFHALSVQAIAGRAGINRATFYAHFADKYALLDTSIQE | 0.268 |
| HMAQFNELLFELRQDRKMTQEDLAKVLFVTSGTISNYENGVHLPDIEKLISLADFFGVTTDYLLG | -0.104 |
| HMNVSDIENKLNEMLSPLEKKVMVLYLEGKSYVEIGELLGRHTKSVDNALQRVKRKLEIYLKNRK | -1.22 |
| HMKSFDERQAALNELAKVIEGTGRKAEQDAEFRREQNQLMIDKIDEQLKGDLTDSQREELKKERAALARK | 0.153 |
| HMSETEEWTVEGGQAGDRIDRHVAAMLGDDVSRSQVQQWIRAGRVTVNGRAVKPSDTVEEGDRVAVDLPEP | 0.0588 |
| HMNVEVDSIGDDDFLVKVSAGTSTEHRVTLTDAYWEQIWSSSLPKKEIISLSFAFLLEREPNSSIMRT | 0.0604 |
| HMIDFTHEDIERLWNAIVHYVPERQKSDMAIDFIKSLEDIGVEHDEIKASAEYDPKLEEAINTVY | -0.352 |
| HMEDQFWQNRAEMALASARRAGRIVTYAEMADAADIPAPQRIHKLTLWLEATMRQDHASGQPLRAALV | 0.0463 |
| HMTTMNSADLIKELEKAGWTLRGVKGSHHIYTHPARGGHLSVPHPKKDLGAGLARQLRKQAGL | 0.125 |
| HMKQPNFTVIETKILELLFQKDLSSREMQEILKISKDNLIFALQNLLEQEKIVLQTSNTYTVN | -1.15 |
| HMSEQIALQFAKAKQHHTGIALKGIEALELRYKGYTGKEIAALYHTSPKSVFSWISRAKQKLRQN | -0.375 |
| HMSNLVEVPAVIGRMKEDAITMLISAGLEPAVTYDEYPLVKENLVADQSVAPGQKVEKGSFVTITVSRS | -0.0475 |
| HMRKTLASTAYDSIKAGIVSGEINNNLLLSENTLAKILNMSRTPIREAIKRLEAESYLKSVDGVGLIVQE | -0.211 |
| HMEAIYKKNKNLIHTVIRDNFPFLIDTADYEDAFQEGSIGLIRAIDRFDDGLEYKFSSYAYTAIRNQIA | -0.409 |
| HMAMTRTEYLNQLKHYLKRLPHTDYEEAMDYFKEYFEEAGPENEAQVIQDLGNPKEAAYEILSQLL | -0.253 |
| HMFSPTKLKEKRESQGLSQSQLASSLGISRASYFNWESGKTKPNQNNLSKLSEILNVDPRYF | 0.355 |

| Sequence | soluble fraction (log2) |
| --- | --- |
| HMTMKVTADILNMRSEASTNSDIVTKLKKDDELKVIEETKDDDGVTWVKVDFNGQVGFVSKEFLG | 0.284 |
| HMHTDQVLVMTRAVGQGEIVRNTDVGLTSVAVDRAVTTIPASQLDEIVGRHALVDLSAGQLLGSHSVGA | 0.0253 |
| HMSETVYQYVARQLRDMLGSGEIPVGQQLPTYRELAKRFQVSLSVIQRAMRQLKAEAVVSIAHGQGVKAVR | -0.42 |
| HMGQYSTTLDKIENSLFGFTYSNEAENTRINRIENKVYGKTSTSQTSTRIAKLKKDLSVDEMG | 0.0362 |
| HMVDDRPVTGTTLIREWQGRAYEVIVQAGHFEFQGQRYQSLSAIAKVITGTVWNGWAFFGLR | -0.524 |
| HMNMGKRFKELRKERKFTQQQLADRIGLAPSAISSYESGARYPSYDVLIKYSKIFHVTTDYLLG | -2.81 |
| HMEPTLVVARDKDAKSPLVAKLMKELGVDAAPRVIVDDSVIGGAKLSHNHTEIDATYKTALINLYQAIT | 0.126 |
| HMFQTAADVAYRIISQKILDGEFPPGMKLSRRKMAEVTSVSVIPVIEALKKLEEDGLVESKPQWGSFVTI | -1.27 |
| HMKPTVKVPNVVNLSLRNAQIQLQNYGLEVGSISYESSRFKNAVLRQSISEGSVVEKGTTINLVISDGL | -0.203 |
| HMQPNVTRERILAAAMTVFAQKGWQKTSLDEVAAAAGMTKGAIYWHFRNKNDLFFALLDARLQRD | -1.97 |
| HMGAGEQMLPKVMFAEGDRVVHKVFGEGTVVTVDRPAQTYDIQFDKLRGTRRIMFRAELEGI | -0.554 |
| HMLTIQNYFNQVKNIDWEQVPAALSKGHQLVEGASQNNWSAYHSNANIQRVVEAYFQKLNDYLEKN | -0.191 |
| HMSSSLDQLTVREREILAQVSRGLSNKAIARELGISHDTVKLHVRHILSKLGFSSRVEAAVFAIEHRIG | -1.72 |
| HMQARLPFSFAKRHGVILLAATGEGQSDVIYKSGFDIGALAEVRRFVAGEIALKEVDGPSFDRQLTLTYQN | -1.77 |
| HMNKVDEEKNAELVSTIQNKFSDVSAATKKKVKAFMAEHDIPNFKNADEIPTANLEAIVAMLNED | 0.229 |
| HMKEKLGEFENVFLSVDELQKLKSKLGAETESYIERLSNYIASSGKKYKSHYATILSWTQKDTK | -0.462 |
| HMDVDKQLDQLLAAMIPDKSLRQTIKTKAFNELVDNELADKDISSWTKQTMDVFMTRAEDMFGAM | -0.136 |
| HMPKNEHETKAIGNQTGGRVFLFLNTDNINRDYNMYISKQVKFVREISQEYYGKVAVFEDLYGNLWDLIE | 0.149 |
| HMLPELIVTTKKGVTVTVTNGVITYSATSNGKATFTVPNYGKWTVSATINGTVISKVVDVTEAKQIPVLLG | 0.196 |
| HMAHSDEAWSVARRVARELDKILDGAGPRRTALVRAAAELRLSTRQIYNLLARYRADRTVTSLLPRR | -0.316 |
| HMKHRTQMDIQQLPAIEGKGGFEYKISIIHLSTRIKYSEIHDNYNTTTIAKVYENAIERLPPF | -2.24 |
| HMRRSKVMLESILDEIPQMGQARRAALLEQFGSVAALRKASLAEIAMTPGIGEKIAVIIFEYLQKSSH | -1.17 |
| HMKKTFSKSSVMEAIFRDIPNITIPNAHEVYTLIKNISVMNKRKSITSEDIEKAYDALGLTP | -0.865 |
| HMQPETIEDATNLYLEAARATLQLIEQNNVIARDVKRLLEHLDNDMARIETLLAEMLSRRDHWLRHIH | -0.12 |
